Test system: Bacillus subtilis
Assay: cleaved RNA product abundance (RNA/gDNA barcode ratio) relative to median wild-type variant (ratio to wild type); higher = more accumulation of the downstream cleavage product
Settings: cleavage site: cggR-gapA (positions -7 to +36 mutated)
Procedure, shortened: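 Cleaved product abundance is expressed as the RNA:gDNA barcode ratio per construct, scaled to the median construct carrying the unmutated site. The constructs were barcoded, mutagenized RNase Y cleavage-site windows in truncated aprE or tetM reporter mRNAs integrated into the B. subtilis chromosome. Cultures grew in LB at 37°C from OD600 0.0003 to 0.3 before cleaved RNA was gel-selected and barcode-sequenced.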

[1] = experiment (reporter, strain, medium): exp 4a: truncated aprE reporter, strain BJT201 with 2% xylose (RNase J1 expressed)
[2] = experiment (reporter, strain, medium): exp 2b: truncated aprE reporter, strain BJT200
[3] = experiment (reporter, strain, medium): exp 6: tetM reporter, strain 168

| Sequence | cleaved RNA product abundance [1] | cleaved RNA product abundance [2] | cleaved RNA product abundance [3] |
| --- | --- | --- | --- |
| ACAGACGAAGGAGCCGCAAAGAATTTATTAAGGGCTGAATAATCCCTCAATATAAATATCTCTCACTTATTTAAA | 0.402 | – | – |
| ACAGACGAAGGAGCCGCAAAGAATTTATTAAGGGGTGAATAATCCCTCAATATAAATATCTCTCACTTATTTAAA | 0.526 | – | – |
| ACAGACGAAGGAGCCGCAAAGAATTTATTAAGGGTTGAATAATCCCTCAATATAAATATCTCTCACTTATTTAAA | 0.388 | – | – |
| ACAGACGAAGGAGCCGCAAAGAATTTATTAAGGTATGAATAATCCCTCAATATAAATATCTCTCACTTATTTAAA | 0.178 | 0.102 | – |
| ACAGACGAAGGAGCCGCAAAGAATTTATTAAGTGATGAATAATCCCTCAATATAAATATCTCTCACTTATTTAAA | 0.118 | 0.127 | 0.117 |
| ACAGACGAAGGAGCCGCAAAGAATTTATTAATGGATGAATAATCCCTCAATATAAATATCTCTCACTTATTTAAA | 0.111 | 0.105 | – |
| ACAGACGAAGGAGCCGCAAAGAATTTATTACGGGATGAATAATCCCTCAATATAAATATCTCTCACTTATTTAAA | 0.37 | 0.303 | – |
| ACAGACGAAGGAGCCGCAAAGAATTTATTATGGGATGAATAATCCCTCAATATAAATATCTCTCACTTATTTAAA | 0.292 | 0.266 | – |
| ACAGACGAAGGAGCCGCAAAGAATTTATTCAGGGATGAATAATCCCTCAATATAAATATCTCTCACTTATTTAAA | 0.549 | 0.624 | – |
| ACAGACGAAGGAGCCGCAAAGAATTTATTTAGGAATGAATAATCCCTCAATATAAATATCTCTCACTTATTTAAA | 0.0547 | – | – |
| ACAGACGAAGGAGCCGCAAAGAATTTCTTAAGGGATGAATAATCCCTCAATATAAATATCTCTCACTTATTTAAA | 0.217 | – | – |
| ACAGACGAAGGAGCCGCAAAGAATTTTTTAAGGGATGAATAATCCCTCAATATAAATATCTCTCACTTATTTAAA | 0.216 | – | – |
| ACAGACGAAGGAGCCGCAAAGACATTATTAAGGGATGAATAATCCCTCAATATAAATATCTCTCACTTATTTAAA | 0.85 | – | – |
| ACAGACGAAGGAGCCGCAAAGACGCTATTAAGGGATGAATAATCCCTCAATATAAATATCTCTCACTTATTTAAA | – | 0.548 | – |
| ACAGACGAAGGAGCCGCAAAGACGTCATTAAGGGATGAATAATCCCTCAATATAAATATCTCTCACTTATTTAAA | 0.449 | – | – |
| ACAGACGAAGGAGCCGCAAAGACGTTATAAAGGGATGAATAATCCCTCAATATAAATATCTCTCACTTATTTAAA | 0.401 | – | – |
| ACAGACGAAGGAGCCGCAAAGACGTTATTAAAGGATGAATAATCCCTCAATATAAATATCTCTCACTTATTTAAA | 0.181 | – | – |
| ACAGACGAAGGAGCCGCAAAGACGTTATTAACGGATGAATAATCCCTCAATATAAATATCTCTCACTTATTTAAA | 0.165 | – | – |
| ACAGACGAAGGAGCCGCAAAGACGTTATTAAGAGATGAATAATCCCTCAATATAAATATCTCTCACTTATTTAAA | 0.116 | 0.101 | – |
| ACAGACGAAGGAGCCGCAAAGACGTTATTAAGCGATGAATAATCCCTCAATATAAATATCTCTCACTTATTTAAA | 0.155 | – | – |
| ACAGACGAAGGAGCCGCAAAGACGTTATTAAGGAATGAATAATCCCTCAATATAAATATCTCTCACTTATTTAAA | 0.14 | – | – |

| Sequence | cleaved RNA product abundance [1] | cleaved RNA product abundance [2] | cleaved RNA product abundance [3] |
| --- | --- | --- | --- |
| ACAGACGAAGGAGCCGCAAAGACGTTATTAAGGGATAAATAATCCCTCAATATAAATATCTCTCACTTATTTAAA | 1.2 | – | – |
| ACAGACGAAGGAGCCGCAAAGACGTTATTAAGGGATCAATAATCCCTCAATATAAATATCTCTCACTTATTTAAA | 0.743 | – | – |
| ACAGACGAAGGAGCCGCAAAGACGTTATTAAGGGATGAATAAACCCTCAATATAAATATCTCTCACTTATTTAAA | 0.312 | – | – |
| ACAGACGAAGGAGCCGCAAAGACGTTATTAAGGGATGAATAATCACTCAATATAAATATCTCTCACTTATTTAAA | 0.188 | 0.101 | – |
| ACAGACGAAGGAGCCGCAAAGACGTTATTAAGGGATGAATAATCCATCAATATAAATATCTCTCACTTATTTAAA | 0.312 | 0.156 | – |
| ACAGACGAAGGAGCCGCAAAGACGTTATTAAGGGATGAATAATCCCCCAATATAAATATCTCTCACTTATTTAAA | 0.226 | – | – |
| ACAGACGAAGGAGCCGCAAAGACGTTATTAAGGGATGAATAATCCCTCAAAATAAATATCTCTCACTTATTTAAA | – | 0.31 | – |
| ACAGACGAAGGAGCCGCAAAGACGTTATTAAGGGATGAATAATCCCTCAACATAAATATCTCTCACTTATTTAAA | 0.316 | – | – |
| ACAGACGAAGGAGCCGCAAAGACGTTATTAAGGGATGAATAATCCCTCAAGATAAATATCTCTCACTTATTTAAA | 0.205 | – | – |
| ACAGACGAAGGAGCCGCAAAGACGTTATTAAGGGATGAATAATCCCTCAATATAAATATCTCTCACTTATTTAAA | 1.02 | 0.978 | 1.12 |
| ACAGACGAAGGAGCCGCAAAGACGTTATTAAGGGATGAATAATCCCTCAATATAGATATCTCTCACTTATTTAAA | 0.456 | – | – |
| ACAGACGAAGGAGCCGCAAAGACGTTATTAAGGGATGAATAATCCCTCCATATAAATATCTCTCACTTATTTAAA | – | 0.338 | – |
| ACAGACGAAGGAGCCGCAAAGACGTTATTAAGGGATGAATAATCCCTCGATATAAATATCTCTCACTTATTTAAA | 0.386 | – | – |
| ACAGACGAAGGAGCCGCAAAGACGTTATTAAGGGATGAATAATCCCTCTATATAAATATCTCTCACTTATTTAAA | 0.572 | – | – |
| ACAGACGAAGGAGCCGCAAAGACGTTATTAAGGGATGAATAATCCGTCAATATAAATATCTCTCACTTATTTAAA | 0.192 | – | – |
| ACAGACGAAGGAGCCGCAAAGACGTTATTAAGGGATGAATAATCCTTCAATATAAATATCTCTCACTTATTTAAA | – | 0.427 | – |
| ACAGACGAAGGAGCCGCAAAGACGTTATTAAGGGATGAATAATTCCTCAATATAAATATCTCTCACTTATTTAAA | 0.944 | – | – |
| ACAGACGAAGGAGCCGCAAAGACGTTATTAAGGGATGAATCATCCCTCAATATAAATATCTCTCACTTATTTAAA | 0.771 | 0.89 | – |
| ACAGACGAAGGAGCCGCAAAGACGTTATTAAGGGATGACTAATCCCTCAATATAAATATCTCTCACTTATTTAAA | – | 0.561 | – |
| ACAGACGAAGGAGCCGCAAAGACGTTATTAAGGGATGATTAATCCCTCAATATAAATATCTCTCACTTATTTAAA | 0.779 | – | – |
| ACAGACGAAGGAGCCGCAAAGACGTTATTAAGGGATTAATAATCCCTCAATATAAATATCTCTCACTTATTTAAA | 0.857 | 0.747 | – |

| Sequence | cleaved RNA product abundance [1] | cleaved RNA product abundance [2] | cleaved RNA product abundance [3] |
| --- | --- | --- | --- |
| ACAGACGAAGGAGCCGCAAAGACGTTATTAAGGTATGAATAATCCCTCAATATAAATATCTCTCACTTATTTAAA | 0.153 | 0.0832 | – |
| ACAGACGAAGGAGCCGCAAAGACGTTATTAATGGATGAATAATCCCTCAATATAAATATCTCTCACTTATTTAAA | 0.115 | 0.115 | – |
| ACAGACGAAGGAGCCGCAAAGACGTTATTAATGGATGAATAATCCTTCAATATAAATATCTCTCACTTATTTAAA | 0.23 | – | – |
| ACAGACGAAGGAGCCGCAAAGACGTTATTATGGGATGAATAATCCCTCAATATAAATATCTCTCACTTATTTAAA | 0.284 | – | – |
| ACAGACGAAGGAGCCGCAAAGACGTTCTTAAGGGATGAATAATCCCTCAATATAAATATCTCTCACTTATTTAAA | 0.231 | – | – |
| ACAGACGAAGGAGCCGCAAAGACGTTTTTAAGGGATGAATAATCCCTCAATATAAATATCTCTCACTTATTTAAA | 0.44 | – | – |
| ACAGACGAAGGAGCCGCAAAGACTTTATTAAGGGATGAATAATCCCTCAATATAAATATCTCTCACTTATTTAAA | 0.8 | – | – |
| ACAGACGAAGGAGCCGCAAAGAGCTTATTAAGGGATGAATAATCCCTCAATATAAATATCTCTCACTTATTTAAA | 0.743 | – | – |
| ACAGACGAAGGAGCCGCAAAGAGGTAATTAAGGGATGAATAATCCCTCAATATAAATATCTCTCACTTATTTAAA | 0.176 | – | – |
| ACAGACGAAGGAGCCGCAAAGAGGTTAATAAGGGATGAATAATCCCTCAATATAAATATCTCTCACTTATTTAAA | 0.363 | – | – |
| ACAGACGAAGGAGCCGCAAAGAGGTTATTAAAGGATGAATAATCCCTCAATATAAATATCTCTCACTTATTTAAA | – | 0.166 | – |
| ACAGACGAAGGAGCCGCAAAGAGGTTATTAAGAGATGAATAATCCCTCAATATAAATATCTCTCACTTATTTAAA | 0.126 | – | – |
| ACAGACGAAGGAGCCGCAAAGAGGTTATTAAGCGATGAATAATCCCTCAATATAAATATCTCTCACTTATTTAAA | 0.0624 | – | – |
| ACAGACGAAGGAGCCGCAAAGAGGTTATTAAGGCATGAATAATCCCTCAATATAAATATCTCTCACTTATTTAAA | – | 0.0794 | – |
| ACAGACGAAGGAGCCGCAAAGAGGTTATTAAGGGATAAATAATCCCTCAATATAAATATCTCTCACTTATTTAAA | 0.62 | – | – |
| ACAGACGAAGGAGCCGCAAAGAGGTTATTAAGGGATGAATAATCACTCAATATAAATATCTCTCACTTATTTAAA | 0.102 | – | – |
| ACAGACGAAGGAGCCGCAAAGAGGTTATTAAGGGATGAATAATCCATCAATATAAATATCTCTCACTTATTTAAA | – | 0.176 | – |
| ACAGACGAAGGAGCCGCAAAGAGGTTATTAAGGGATGAATAATCCCTAAATATAAATATCTCTCACTTATTTAAA | 0.386 | – | – |
| ACAGACGAAGGAGCCGCAAAGAGGTTATTAAGGGATGAATAATCCCTCAATATAAATATCTCTCACTTATTTAAA | 0.754 | 0.814 | 0.737 |
